Consider one molecule from article doi:10.1101/2022.01.19.476979 (bioRxiv, 2022).

The target in experiment [1] is T1, FHH-tagged Siah1, recombinant purified (UniProt Q8IUQ4 1-282, RED-tris-NTA 2nd generation dye (Monolith His-Tag labeling kit)).
T1 sequence (looked up): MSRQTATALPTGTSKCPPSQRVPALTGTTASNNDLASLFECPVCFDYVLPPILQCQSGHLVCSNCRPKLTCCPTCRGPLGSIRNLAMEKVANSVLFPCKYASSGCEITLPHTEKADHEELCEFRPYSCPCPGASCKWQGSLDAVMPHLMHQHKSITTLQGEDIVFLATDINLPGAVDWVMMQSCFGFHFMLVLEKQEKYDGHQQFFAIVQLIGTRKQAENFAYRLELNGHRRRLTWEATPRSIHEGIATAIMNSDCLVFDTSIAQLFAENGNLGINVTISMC
Nature of the experiment: MST.

The target in experiment [2] is FHH-tagged MAB21L4, recombinant purified (human, UniProt Q08AI8 1-447, RED-tris-NTA 2nd generation dye (Monolith His-Tag labeling kit)). The experiment can be described thus: MST.
FHH-tagged MAB21L4, recombinant purified, sequence (Q08AI8 whole entry): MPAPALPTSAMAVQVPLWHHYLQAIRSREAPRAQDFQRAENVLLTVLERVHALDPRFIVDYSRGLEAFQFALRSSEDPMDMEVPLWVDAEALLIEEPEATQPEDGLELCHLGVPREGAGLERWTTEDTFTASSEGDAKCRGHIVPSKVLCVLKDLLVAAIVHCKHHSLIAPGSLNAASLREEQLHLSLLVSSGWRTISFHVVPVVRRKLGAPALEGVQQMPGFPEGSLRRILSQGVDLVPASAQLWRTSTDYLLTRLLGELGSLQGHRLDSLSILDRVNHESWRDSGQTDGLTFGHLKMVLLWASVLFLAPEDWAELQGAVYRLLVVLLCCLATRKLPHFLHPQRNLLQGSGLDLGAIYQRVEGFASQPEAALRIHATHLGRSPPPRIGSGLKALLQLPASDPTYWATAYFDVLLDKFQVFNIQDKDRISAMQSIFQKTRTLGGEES

B1: n-terminus FLAG-tagged CacyBP, recombinant purified (natural protein, UniProt Q9HB71 1-228, looked up)
chain: MASEELQKDLEEVKVLLEKATRKRVRDALTAEKSKIETEIKNKMQQKSQKKAELLDNEKPAAVVAPITTGYTVKISNYGWDQSDKFVKIYITLTGVHQVPTENVQVHFTERSFDLLVKNLNGKSYSMIVNNLLKPISVEGSSKKVKTDTVLILCRKKVENTRWDYLTQVEKECKEKEKPSYDTETDPSEGLMNVLKKIYEDGDDDMKRTINKAWVESREKQAKGDTEF
The term Kd denotes the constant that tells how readily two partners part at equilibrium. Regarding B1, the Kd was 9.8 µM in experiment [1] and 2.1 µM in experiment [2].
